According to patent publication US12291562B2, “Reagents and assays using modified integrin domains” (Rush University Medical Center, priority 2019, dated 2025):

What was measured:
[1] = Phage ELISA on blocked well; assay type: binding; conditions: Table 5, scFv phage diluted 1:5
Protocol: (§1) After 2 rounds of enrichment against the primary target, positive binders were identified by phage ELISA and analyzed by restriction mapping & sequencing for identification of unique clones. Small scale phage growths were diluted 1:5 in TBS+casein. Nunc Maxi-Sorp strip wells were coated at ˜5 μg/ml of each test protein overnight at 4° C. and blocked with TBS+casein. The diluted phage were applied and allowed to bind for 1 hour with shaking. The wells were washed 4 times with TBS+0.05% Tween20 and twice with TBS. Bound phage were detected by incubation for 1 hour with anti-M13-HRP and after washing as above, developed with TMB. Absorbance at 450 nm was read after acidification of the wells.

[2] = test system: CD11b A-domain polypeptides; test: Conformation selectivity in counterscreen and dilution series ELISA; assay type: binding, human; conditions: conclusion from ELISA data
Protocol: as §1
High binding clones were included in a counterscreen ELISA against other CD11b A-domain polypetides which produced the following data:
To confirm binding, a dilution series experiment was carried out. Select clones were subjected to a dilution series which generated the following data: […]

[3] = molecular target: T1, BZ348014 (CD11b A-domain CD11bA-D242A/F275S/F302G) (Homo sapiens, UniProt P11215, D258A/F291S/F318G); test: Phage ELISA on BZ348014; assay type: binding; conditions: Table 5; scFv phage diluted 1:5; after 2 rounds of enrichment
T1 construct: MGS-8XHis-SG (N); TEV site (ENLYFQ) followed by GS linker (N); made in house; host or cells: E. coli BL21DE3 (pET-11d)
T1 sequence (P11215 148-337 D258A/F291S/F318G): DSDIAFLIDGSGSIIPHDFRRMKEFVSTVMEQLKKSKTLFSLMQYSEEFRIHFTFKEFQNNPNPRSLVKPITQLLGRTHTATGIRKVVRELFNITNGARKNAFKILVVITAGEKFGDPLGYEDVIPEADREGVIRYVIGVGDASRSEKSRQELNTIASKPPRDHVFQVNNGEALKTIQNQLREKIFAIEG
Excerpt: A naïve human scFv phage display library and VHH phage display library were screened against several integrin targets of interest. The screen involved phage ELISA followed by sequencing.
Example experiment: A diverse naïve human scFv phage display library (Neoclone, LLC, Madison, WI) was enriched on BZ348014.
as §1

BZ348014 antigen = molecular target: T2, BZ348014 antigen (Homo sapiens, UniProt P11215, D258A/F291S/F318G); test: VHH phage display library screening; assay type: binding
T2 construct: MGS-8XHis-SG (N); TEV site (ENLYFQ) followed by GS linker (N); made in house; host or cells: E. coli BL21DE3 (pET-11d)
T2 sequence (P11215 148-337 D258A/F291S/F318G): as above
Protocol: A panning and enrichment of the BZ348014 antigen against a VHH phage display library (Neoclone, LLC, Madison, WI) was also conducted in an identical manner to the human scFv phage display library screen. One unique binder was identified, clone 8.

| Molecule | ELISA absorbance at 450 nM, Blocked well [1] | Selectivity of binding to CD11b A-domain polypeptides mutationally stabilized in active conformation over the other conformations [2] | ELISA absorbance at 450 nM, BZ348014 [3] | Binder identified by panning and enrichment against BZ348014 antigen (BZ348014 antigen) |
| --- | --- | --- | --- | --- |
| Clone 6: scFv phage clone, VL-linker-VH, SEQ ID NO: 64 (protein, Clone 6) scFv: QSVLTQPPSASGTPGQRVTISCSGSSSNIGSNYVSWYQQLPGTAPKLLIYDNNKRPSGIPDRFSGSKSGTSATLGITGLQTGDEADYYCGTWDSSLSALYVFGAGTKLTVLGEGKSSGSGSESKASQVQLQESGPGLVKPSETLSLTCSVSGGSTSSYYWSWIRQPPGKGLEWIGYISNSGSTNYNPSLKSRVTMSIDTSNNQFSLKLSSVTAADTAVYYCASHLGATWRWGQGTLVTVSS | 0.041 | bound selectively |  |  |
| Clone 5: scFv phage clone, VL-Linker-VH, SEQ ID NO: 63 (protein, Clone 5) scFv: SSELTQDPAVSVALGQTVRITCQGDSLRSYYASWYQQKPGQAPVLVIYGKNNRPSGIPDRFSGSTSGNFASLTITGAQAEDGADYYCHSRDSSGNHLVFGGGTKLTVLGEGKSSGSGSESKASEVQLVQSGAEVKKPGESLKISCKGSGYSFTSYWIGWVRQMPGKGLEWMGIIYPGDSDTRYSPSFQGQVTISADKSISTAYLQWSSLKASDTAMYYCARRARGAFDIWGQGTLVTVSS | 0.045 | limited or no selectivity |  |  |
| Clone 13: phage clone, VH only, SEQ ID NO: 66 (antibody, V domains shown, Clone 13) VH: EVQLLESGGGLVQPGGSLRLSCAASGFTFSSDLMSWVRQAPGKGLEWVSAISGSGGSTYYADSVKGRFTISRDNSKNTLYLQMNSLRAEDTAVYYCAKNEVIFDYWGQGTLVTVSSASTKGLSMFDYWGQGTKVEIK | 0.043 | bound selectively |  |  |
| Clone 8: clone from naïve human scFv phage display library enriched on BZ348014 (Table 5); not the VHH clone 8 (protein, Clone 8) scFv: DVQLVESGGGLVQPGGSLRLSCTASGFTFSNYAMNWVRQAPGKGLEWVSVISSSGSRRNYADSVKGRFTISRDNAKSTLYLQMNSLKPEDTAVYYCAKVRDAGYYRWNLNDLDYRGQGTQVTVSS | 0.047 |  | 0.060 | unique binder |
| Clone 14: scFv phage clone, VK-Linker-VH, SEQ ID NO: 67 (protein, Clone 14) scFv: DVVMTQSPLSLPATLGQPASISCRSSQSLVYTDGNTYLNWFQQRPGQSPRRLIYKVSNRDSGVPDRFSGSGSGTHFTLKISRVEAEDVGVYYCMQGTHWPPTFGQGTKVEIKEGKSSGSGSESKASEVQLVQSGAEVKKPGASVKVSCKASGGTFSSYAISWVRQAPGQGLEWMGGIIPIFGTANYAQKFQGRVTITADESTSTAYMELSSLRSEDTAVYYCASSGVDYWGQGTLVTVSS | 0.044 | bound selectively |  |  |
| Clone 11: scFv phage clone, VH-linker-VK, SEQ ID NO: 65 (protein, Clone 11) scFv: EVQLVESGGGVVQPGRSLRLSCAATGFTFSNYGIHWVRQAPGKGLEWVAVTSYDGSNKYYADSVKGRFTISRDNSKNTLYLQMNSLRVEDTAVYYCAKDRGYYTYVFDYWGRGTLVTVSSGEGKSSGSGSESKASDVVMTQTPLSLPVTPGEPAAISCRSSQSLLHSNGYNYLDWYLQKPGQSPQLLIYLGSNRASGVPDRFSGSGSGTDFTLKISRVEAEDVGVYYCMQAVQTVD | 0.043 |  | 0.628 |  |
